Test results taken from patent publication US7201905B2, “Bi-functional cancer treatment agents” (Greenville Hospital System, priority 2001, dated 2007).

B1: hPRL-G129R: human prolactin with substitution of Gly to Arg at position 129 (SEQ ID NO: 34), hPRLR antagonist (protein)
chain: LPICPGGAARCQVTLRDLFDRAVVLSHYIHNLSSEMFSEFDKRYTHGRGFITKAINSCHTSSLATPEDKEQAQQMNQKDFLSLIVSILRSWNEPLYHLVTEVRGMQEAPEAILSKAVEIEEQTKRLLEGMELIVSQVHPETKENEIYPVWSGLPSLQMADEESRLSAYYNLLHCLRRDSHKIDNYLKLLKCRIIHNNNC
B2: hPRL: human prolactin (protein)
chain: B1 chain

Legend:
L-1210 tumor cells = details: inhibiting cell growth and differentiation, read-out: IC50, cytotoxic effects against L-1210 tumor cells; cited from earlier work
[1] = system: T-47D human breast cancer cells; assay: T-47D human breast cancer cell proliferation assay (FIG. 4); type: cell-based
Text: The x-axis represents the hPRL-G129R concentration either in the absence (open bars) or presence of 4-OH-Tamoxifen. Each data point represents a mean of at least three independent experiments with triplicate wells.

[2] = system: STAT5 phosphorylation in T-47D human breast cancer cells; assay: STAT 5 phosphorylation/immunoprecipitation assay; type: cell-based; details: T-47D cells, 30 min incubation, anti-phosphotyrosine blot
Protocol: T-47D cells are grown in RPMI-1640 medium containing 10% Charcoal Stripped Fetal Bovine Serum (CSFBS; growth medium). For each experiment, cells are passed into 6 well culture plates in growth medium till reach 90% confluence. On the day of the experiment, cells are depleted in serum free media for one hour and incubated in hPRL, hPRL-G129R or combination of two for 30 min. After treatment, T47-D cells are washed once with ice cold PBS and collected by gentle scraping in 1 ml ice cold lysis buffer [20 mM Tris-Cl (pH 7.4), 100 mM NaCl, 2 mM EDTA, 1% NP-40, 1 mM phenylmethylsulfonyl fluoride, 10 ug/ml aprotinin, 10 ug/ml leupeptin]. The lysis mixture is then passed through a 22 gauge needle several times avoiding air bubbles and spin at maximum speed for 20 minutes. The supernatant is then transferred to a new microcentrifuge tube. Five μg of STAT5 monoclonal antibody is then added to 100 microliters (200–500 micrograms total protein) of cell lysate along with 400 microliters of ddH20 and 500 microliters of 2×IP buffer [1% Triton X-100, 150 mM NaCl, 10 mM Tris pH 7.4, 1 mM EDTA, 1 mM EGTA, 0.2 mM sodium vanadate, 0.2 mM PMSF, 0.5% NP-40] to each reaction. After overnight incubation at 4° C. and gentle rotation, 50 microliters of prewashed (1×IP buffer) protein A agarose beads are added to each IP reaction and continue the Incubation for another 2 hours at 4C. […]

[3] = system: T-47D human breast cancer cells; assay: T-47D co-culture method with L cells (FIG. 3); type: cell-based; details: co-cultured with L-PRL or L-hPRL-G129R cells, dose-response
Text: The x-axis represents the co-cultured L cell (control, L-PRL or L-hPRL-G129R cell numbers. Each data point represents a mean of at least three independent experiments with triplicate wells.

Molecule | IC50 (L-1210 tumor cells) [nM] | effect on T-47D cell proliferation ([1]; hPRL-G129R alone, dose-response) | effect on T-47D cell proliferation in combination ([1]; in presence of 4-OH-Tamoxifen) | block of signal transduction (STAT5 phosphorylation) induced by hPRL [2] | effect on T-47D cells, co-culture method [3]
COc1ccc2c(c[n+](C)c3c4cc5c(cc4ccc23)OCO5)c1OC [chelerythrine, 1,2-dimethoxy-12-methyl[1,3]benzodioxolo[5,6-c]phenanthridinium] | 53 |  |  |  | 
B1 |  | dose-response inhibitory effects | additive effects with 4-OH-Tamoxifen | able to block the signal transduction induced by hPRL | dose-response inhibitory effects
B2 |  |  |  |  | stimulatory effects
